Results taken from doi:10.1101/2025.03.14.643404 (2025).

Tests used:
[1] = biological target: T1, BCL6^BTB (residues 5-129; C8Q, C67R, C84N), tags cleaved (pSG219C) (human, UniProt P41182 5-129, C8Q | C67R | C84N); test: ITC; BCL6 binding to p300:TCIP3 binary complex (ternary, alpha 13)
[2] = biological target: T1, BCL6^BTB (residues 5-129; C8Q, C67R, …); test: ITC; p300 binding to BCL6:TCIP3 binary complex (ternary, alpha 3.5)

B1: 6xHis-p300^BD (p300 bromodomain) (domain or fragment)
chain: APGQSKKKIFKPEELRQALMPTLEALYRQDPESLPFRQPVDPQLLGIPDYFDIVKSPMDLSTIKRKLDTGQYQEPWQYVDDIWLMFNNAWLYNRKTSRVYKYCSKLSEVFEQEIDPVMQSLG
Kd [1]: 19.8 nM
Kd [2]: 2.37 nM
